Source: the supplement of paper PMC12042874
± gives the uncertainty stated by the source.

experiment: amyloid nucleation score (Sup35N fusion, yeast selection) (log enrichment); library NNK1; higher = more nucleation; inactive = no reads after selection
Outline: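 The nucleation score is the log enrichment of output over input reads, calculated with DiMSum and centred on the mode score of non-aggregating sequences. Sequences with under 100 input reads were excluded. Reads came from Illumina sequencing of plasmid inserts from psi-negative yeast expressing Sup35N fused to peptides of 20 random codons, induced 24 hours with 100 μM copper sulfate and grown 7 days at 30°C without adenine and uracil.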

Substance	amyloid nucleation score
GGYRVLIFSIFRG	0.599 ± 0.51
GHCGPEKREIDVAGVWVERS	-0.098 ± 1.3
GHDLSVPWRTDWLRGL	0.177 ± 1.2
GHGYCLSWFNGNDPRGTTTT	1.1 ± 0.7
GHISIMVHYLFVSTHSSQED	4.46 ± 0.13
GHWLYMTYLCL	0.459 ± 0.75
GIFHANLTMVWRHIEVKEGC	0.696 ± 0.92
GIGLGFQ	-0.563 ± 0.53
GILLRH	-0.742 ± 1.2
GINNIYGLRYRHMPTSSIVA	1.88 ± 0.39
GIRPNFTVRFGGSWSQRNDR	0.749 ± 0.47
GISLSLVVERSGK	1.49 ± 0.21
GIYTFFVGTKFC	0.65 ± 0.5
GKAASRNGGMWKEMRFEACD	0.046 ± 0.42
GKEPVACRIPNKA	1.17 ± 0.3
GKHGQDFNSYRRVWLKSYLC	1.07 ± 0.52
GKLVVFNFL	8.483 ± 0.048
GKNTYVCVGSSASSFWGSLL	0.86 ± 0.77
GKNWSFLTSYFCWFTLKIH	1.4 ± 0.35
GKSMYCYK	-0.96 ± 2.7
GKTISGL	0.239 ± 0.44
GLCMEYTVWWVWSWITLRVD	-0.294 ± 0.26
GLGCYVKNKTHESYARSTAH	-0.671 ± 0.56
GLKGDIWDMGYSFGWRDGDA	0.297 ± 0.51
GLLVGLQQCYNYGWKGSDCN	0.504 ± 0.75

Substance	amyloid nucleation score
GLMNSRYMYVVNMS	0.758 ± 0.4
GLNCSGNGEVIWQP	-0.403 ± 1.4
GLQFSFVEFFSLYVESEDHY	0.332 ± 0.35
GLRATVYITLRFE	-0.442 ± 0.43
GLRDACFSVLPVYLWVSNGD	0.281 ± 0.55
GLRSESRKRGGGGGVAREVG	-0.053 ± 0.86
GLVSRLCRFHFMCIACNPKL	0.585 ± 0.43
GLWLQL	0.216 ± 0.26
GMCSEGTFKRQLISMHTCRT	0.247 ± 0.79
GMLDAY	inactive
GMNPQTHAPVILTLGVQNIR	2.2 ± 0.14
GMPGHFLLLKLGYFANRTNR	-1.25 ± 1.1
GMRVLQIFGTGGGDSNTRGD	0.84 ± 0.36
GMYLYIPLSITFTVEHTVVA	5.02 ± 0.093
GNAWCGLGSKKYCVWLYHYS	0.214 ± 0.28
GNFCFPMAYTGLVFGEMLSF	0.1 ± 0.24
GNGFVL	0.999 ± 0.45
GNIFAYGT	-0.611 ± 0.76
GNIFWRMLWFVGYEKGSLLF	-0.022 ± 0.36
GNKPLVVHGSGGICKLCE	-0.147 ± 0.38
GNLVTCNSKYTRMEG	0.166 ± 0.49
GNSWTSVVLHYFGSFSWGVT	inactive
GNTWNIMFNICCLQGIECCL	7.349 ± 0.051
GNWAVGSIRDSCICGYIELR	6.915 ± 0.046
GNWGNGSGTCLCTSSFYCRL	2.78 ± 0.14

Substance	amyloid nucleation score
GPDRCDRWEPRCCAKSRRER	-0.061 ± 0.42
GPQIGG	1.38 ± 0.17
GPRYRLLLWECCRHDLSLSC	0.72 ± 0.43
GPTYVSSFLELWRNTSHDFC	-0.402 ± 0.88
GPWGQICSDTFYLLFVWVSW	0.133 ± 0.37
GQFAFNMKNSLMNVVGVILE	inactive
GQLSCLSFNVVTGRYKAIAF	0.629 ± 0.38
GQYVWADLINVVRLWVFVSR	0.503 ± 0.87
GRATMGRGRCNLFGHKGHGH	0.046 ± 0.55
GRFLHINS	inactive
GRILYEAYTPVERVYAWCSA	inactive
GRIQCHYGLSVYNGFESGTG	0.279 ± 0.83
GRKRYKRATHH	-0.593 ± 1.5
GRMNKNYA	inactive
GRNWLVGCVAQWHWSSLSWS	-1.11 ± 2.7
GRPNATIKNLVIFSEMFYSL	4.68 ± 0.063
GRVDWMCEYLKLMRSVGWSR	0.545 ± 0.41
GRYWSCEATRLCKYFGCTMR	-0.212 ± 0.48
GSARYCSYCWRTSDITWIIH	1.71 ± 0.13
GSCGKGHLSPRALLFTHSWQ	-0.446 ± 0.61
GSCLISRT	1.02 ± 0.5
GSCVCECGWIFTARGVRVFK	-0.346 ± 0.42
GSDQLSTT	-0.338 ± 0.43
GSFLRGPHPKNY	0.853 ± 0.66
GSGNVRL	-1.61 ± 2.4

Substance	amyloid nucleation score
GSGVDSRVSCKKFILSLVGA	-0.39 ± 1.7
GSGWEGSTVRFSQASFGELW	0.328 ± 0.97
GSHSGVFRVIKYQILFEVGM	inactive
GSIWED	-0.778 ± 0.64
GSKSFPSSGSSMQAAGTSSG	-0.069 ± 0.36
GSLLICEWLRFSRGRGVRSY	1.11 ± 0.79
GSMNVECDRDRDRYNVCHYR	-0.569 ± 0.39
GSRRDRISLRSQRVCILEKG	1.95 ± 0.6
GSSWYNNPVQGILGGYNL	-0.348 ± 0.47
GSTFVGAIKQPIVCWIESGN	-1.32 ± 1.2
GSTTSLRFTVLQTFLFSCNN	-0.663 ± 0.8
GSTYR	-0.482 ± 0.51
GTCPSRPVSV	-0.139 ± 0.47
GTGSSAVDVFSGLMCGTDVL	-0.145 ± 0.46
GTHTEYSQKTVLVDIFTELM	inactive
GTLGSWSIIISLIRHSECLC	-0.659 ± 0.46
GTLVLYFCGVC	6.62 ± 0.059
GTMDMSQGYSQVCLDFIVHG	-0.626 ± 1.2
GTRCMALALGLHIYIFIRGG	-0.161 ± 0.46
GTRQSDHYCVSTGLCV	0.352 ± 0.36
GTRWSHTWWPGTNLMLCVQG	-0.453 ± 0.26
GTSMRFGGGVIF	-0.721 ± 0.49
GTVSGYYVRVGNFAMYYQAY	1.91 ± 0.17
GVADMAVRGQCSHYSVAWST	-1.07 ± 0.82
GVCWRDYGLEAGTGAQVQQC	3.03 ± 0.15

Substance	amyloid nucleation score
GVDHIGLGTEEYNQSYLGSG	-0.505 ± 0.53
GVHRWVRSARLEAVHFGAGW	1.45 ± 0.84
GVLSICGML	-0.401 ± 0.31
GVRYQALFLSAVL	0.09 ± 0.21
GVSKCQDEYSGLGNRNYM	-1.28 ± 0.59
GVSQNKCMPVWCVR	0.504 ± 0.38
GVTYNLK	-0.685 ± 1
GVVFPWSVLMFSCSSCLAVP	0.605 ± 0.61
GVVGVNSADLFNGKIVIKFS	1.81 ± 0.2
GWAGRVCNRGKTWDIDLRQR	-0.7 ± 0.34
GWCFVSRDLVNYLMCVTAGV	-1.02 ± 0.88
GWSLNQVVCCALCSVSRRKR	0.553 ± 0.48
GWSSFWGPLVCARVWRRIGE	0.433 ± 0.54
GYIVYDIMYAIFYKQTVYLI	inactive
GYIYLFGARFVVEEFGIVFW	0.678 ± 0.93
GYKMAYNFCDEKEGLNWRVG	-0.257 ± 0.52
GYYIEMLYFMEALDIS	inactive
HAAYTEVFILLLNDNILPHL	-0.393 ± 0.45
HAFSSCDYSHYVFGMRPFDL	1.51 ± 0.15
HAMISWDISNVCVYWHMCPW	0.12 ± 0.33
HCVTFACC	0.523 ± 0.53
HDSLKFVKQSFFCPEVYIPG	-0.596 ± 0.47
HEFYSVLMGHFVWLQPWETR	0.839 ± 1.1
HEGPCKRNCTGVLLRSARRH	-0.049 ± 0.26
HEIKIRHFIRMTGSGSYQSL	0.176 ± 0.29

Substance	amyloid nucleation score
HERFLRIQRVHREKKCKVCL	0.267 ± 0.77
HEYNCRG	inactive
HFCKYSQNIELRQALGCYFW	6.16 ± 0.065
HFEQGYAHSSYMWVLGRPMW	2.86 ± 0.087
HGIFEGRITVILKGY	4.05 ± 0.15
HGLGALYTSVRRARLGFFYC	4.23 ± 0.15
HGMWNTQVTVTWYTSADLFV	-0.093 ± 0.52
HGRIGLVWESGKCMTYLREV	0.191 ± 0.37
HGVLCSWSRLKTRFDQNGIS	0.616 ± 1.2
HHIRCRVRIQNNPS	0.368 ± 0.55
HHLTRTTPYPTSTWLAQLLS	0.994 ± 0.63
HICTTFCTSMFSRTSQWSGG	0.673 ± 0.3
HIDWSNVSYGDDRYGSGDCR	0.142 ± 0.19
HIESNYRSERTDGWYICRSG	1.11 ± 0.2
HIFHCGNRRFHTIKM	inactive
HIKHSMMFGTYTK	-1.2 ± 0.72
HIMEIVESFTIETRMIKGCV	0.874 ± 0.53
HIQLIYVTIVLESRLSWWRI	0.934 ± 0.53
HIWLVVKKFPNIEHSIMIGS	-0.334 ± 1.2
HKCDSVKVGGSCNKTAYSRC	0.787 ± 0.59
HKFSNELLL	-0.145 ± 0.76
HKLDQLKASRLPSLVNWRVG	1.12 ± 0.7
HKLFNALNPKKG	0.532 ± 1.2
HKRLVGSYWFIFYSVTRYQE	-0.685 ± 1.7
HKSIMAYRN	0.677 ± 0.68

Substance	amyloid nucleation score
HLCFIADGQLRTVVVELFPI	0.576 ± 0.42
HLDGSVISNSMVNIVFLSLV	5.71 ± 0.072
HLICRFVHVNHCLVQQPKGS	1.37 ± 0.33
HLLNYIVGL	0.294 ± 0.69
HLRFYAYRGMGRPNFFLCFE	0.183 ± 0.38
HLRIGLNDVSLIISLTDKRT	-1.07 ± 0.47
HMFIFPYGAFMMERLFSGAI	0.198 ± 0.97
HMVFC	-0.446 ± 0.33
HNFLLYVSSYSFFHRLFMLH	0.149 ± 0.46
HNHRRQDGIRNA	1.12 ± 0.14
HNRMMMRADVTAVDTRYFTS	-1.57 ± 1.3
HNSNECYYF	-1.06 ± 2.4
HPVIADDLSYAAVIKRYLGV	0.267 ± 0.41
HQIFIWVVGLGTFETPRNHK	5.96 ± 0.066
HRNRFYVVLYRNLDLWL	-0.197 ± 0.23
HRRRYAVNFSVEIMIRALG	-1 ± 1.6
HRTFA	0.465 ± 0.35
HRVVSVRRCMKHPLSMERVA	0.447 ± 0.51
HSEIHVALYCASVML	3.38 ± 0.097
HSGFNVAAYFTSMN	0.467 ± 0.9
